Values after ≈ are worked out from the molar mass of the structure shown. Like-named read-outs stand apart in the source and are kept apart here. Peptide text beside a SMILES is read from it. * marks the point of attachment. Paclitaxel(2'-O-succinyl) = CC(=O)O[C@H]1C(=O)[C@@]2(C)[C@H]([C@H](OC(=O)c3ccccc3)[C@]3(O)C[C@H](OC(=O)[C@H](OC(=O)CCC(=O)*)[C@@H](NC(=O)c4ccccc4)c4ccccc4)C(C)=C1C3(C)C)[C@]1(OC(C)=O)CO[C@@H]1C[C@@H]2O
How the values were obtained:
[1] = Metabolism in liver microsomes; assay type: in vitro ADME; settings: for k / microsomal CLint at 1 µM / half-life at 1 µM: NADPH, 37°C; for microsomal CLint at 1 µM: read-out: CLint(mic); for half-life at 1 µM: read-out: t½
Method: 1.85 mg of DOC-AI (or 1.81 mg of PTX-AI) was precisely weighed, 1 mL of DMSO was added, dissolved and mixed well to obtain 1 mM stock solution. 1 mM stock solution was diluted with methanol to 100 µM working solution for sample incubation. 12.5 µL of 20 mg/mL liver microsomes (mouse-derived, Shanghai Quanyang Trading Co., Ltd., batch number: MIC255038; rat-derived, Shanghai Quanyang Trading Co., Ltd., batch number: MIC254034; dog-derived, Shanghai Quanyang Trading Co., Ltd., batch number: MIC257015; monkey-derived, Ruide Liver Disease Research (Shanghai) Co., Ltd., batch number: SYXS; human-derived, Shanghai Quanyang Trading Co., Ltd., batch number: 1210097), 432.5 µL of 100 mM PBS, 25 µL of 20 mM NADPH, and 25 µL of 100 mM MgCl2 were added into a 96-well plate, and after mixing, pre-incubated at 37°C for 5 min. 5 µL of 100 µM working solution was added to the 96-well plate to initiate the reaction. At the set time points, 50 µL of the reaction sample was taken and placed in an EP tube containing 100 µL of ice-cold acetonitrile, vortexed for inactivation, and stored at -90°C for testing. […] Table 4 Results of detection of DOC-AI metabolism in liver microsomes

[2] = Solubility in water (HPLC, saturated solution); assay type: physicochemical; settings: for solubility thermodynamic at 15 min: in water (ultrapure), HPLC; for Fold Increase: solubility in water of the conjugate versus the free drug (DOC or PTX)
Method: 25, 50, 100, 200, 300, and 400 µL of the above stock solutions were precisely measured, added into 1 mL volumetric flasks, and diluted to the mark with methanol to obtain a series of standard solutions with concentrations of 25, 50, 100, 200, 300, and 400 µg/mL, respectively. The peak areas of the series of standard solutions were detected by HPLC (mobile phase: 0.065% TFA in water + 0.05% TFA; chromatographic column: YMC-Triart C18; wavelength: 220 nm) to construct a concentration-peak area standard curve, where the abscissa represents concentration and the ordinate represents peak area.
The peak area of the sample was detected by HPLC, and its saturation in water was calculated through the concentration-peak area standard curve. Table 6 Results of detection of solubility of polypeptide conjugates in water

[3] = system: HCCLM3 (human highly metastatic hepatocellular carcinoma cells); test: Tumor cell proliferation inhibition (CCK8); assay type: cell-based; settings: IC50 of free drug / IC50 of polypeptide conjugate
Description: (§1) Human highly metastatic hepatocellular carcinoma cells HCCLM3, human highly metastatic gastric cancer cells MKN45, human gastric cancer cells BGC-823 and MGC-803, non-small cell lung cancer cells A549, human pancreatic cancer cells ASPC-1, human colon cancer cells LoVo, human ovarian cancer cells A2780, human cervical cancer cells SiHa, human malignant melanoma cells SK-mel-2 and M14, human osteosarcoma cells Saos-2, human bladder transitional cell carcinoma cells T24, human brain glioblastoma cells U87-MG, human lymphoma cells Raji, and human epidermal cancer cells A431 were selected for the experiment. Among them, HCCLM3 cells, MKN45 cells, BGC-823 cells, MGC-803 cells, A431 cells and A549 cells were provided by Nanjing Anji Biotechnology Co., Ltd., and the other cells were provided by Nanjing Ouji Pharmaceutical Technology Service Co., Ltd.
(§2) The aforementioned tumor cells were preserved in a medium containing 10% fetal bovine serum and 1% penicillin-streptomycin, and incubated at 37°C with 5% CO2 and 95% humidity. The aforementioned tumor cells were cultured in T75 flasks with an experimental cell density of 80%. The aforementioned tumor cell lines were mycoplasma-negative.
(§3) Tumor cells in the logarithmic growth phase were taken for the experiment. The cells were digested, counted, and prepared into a cell suspension with a concentration of 1×10^5 cells/mL, which was then inoculated into a 96-well plate (100 µL per well). The 96-well plate was incubated in a 37°C, 5% CO2 incubator for 24 hours. […] After incubating the plate in the incubator for 72 h, the cell morphology of each group was observed under a microscope. Then, 10 µL of CCK8 solution (Nanjing Enjing Biotechnology Co., Ltd.) was added to each well, and the plate was further incubated in the cell incubator for 4 h. After incubation, the absorbance was measured at 450 nm, and the tumor cell proliferation inhibition rate was calculated. The efficiency ratio was the ratio of the IC50 value of the free drug to that of the polypeptide conjugate. Table 1 Tumor cell proliferation inhibition rates of polypeptide conjugates

[4] = system: A549 (non-small cell lung cancer cells); test: Tumor cell proliferation inhibition (CCK8); assay type: cell-based; settings: IC50 of free drug / IC50 of polypeptide conjugate
Description: as §1, §2, §3

[5] = system: SK-mel-2 (human malignant melanoma cells); test: Tumor cell proliferation inhibition (CCK8); assay type: cell-based; settings: IC50 of free drug / IC50 of polypeptide conjugate
Description: as §1, §2, §3

[6] = system: SiHa (human cervical cancer cells); test: Tumor cell proliferation inhibition (CCK8); assay type: cell-based; settings: IC50 of free drug / IC50 of polypeptide conjugate
Description: as §1, §2, §3

[7] = system: M14 (human malignant melanoma cells); test: Tumor cell proliferation inhibition (CCK8); assay type: cell-based; settings: IC50 of free drug / IC50 of polypeptide conjugate
Description: as §1, §2, §3

[8] = system: ASPC-1 (human pancreatic cancer cells); test: Tumor cell proliferation inhibition (CCK8); assay type: cell-based; settings: IC50 of free drug / IC50 of polypeptide conjugate
Description: as §1, §2, §3

[9] = system: U87-MG (human brain glioblastoma cells); test: Tumor cell proliferation inhibition (CCK8); assay type: cell-based; settings: IC50 of free drug / IC50 of polypeptide conjugate
Description: as §1, §2, §3

[10] = system: LoVo (human colon cancer cells); test: Tumor cell proliferation inhibition (CCK8); assay type: cell-based; settings: IC50 of free drug / IC50 of polypeptide conjugate
Description: as §1, §2, §3

[11] = system: A2780 (human ovarian cancer cells); test: Tumor cell proliferation inhibition (CCK8); assay type: cell-based; settings: IC50 of free drug / IC50 of polypeptide conjugate
Description: as §1, §2, §3

[12] = system: T24 (human bladder transitional cell carcinoma cells); test: Tumor cell proliferation inhibition (CCK8); assay type: cell-based; settings: IC50 of free drug / IC50 of polypeptide conjugate
Description: as §1, §2, §3

[13] = system: Raji (human lymphoma cells); test: Tumor cell proliferation inhibition (CCK8); assay type: cell-based; settings: IC50 of free drug / IC50 of polypeptide conjugate
Description: as §1, §2, §3

[14] = system: Saos-2 (human osteosarcoma cells); test: Tumor cell proliferation inhibition (CCK8); assay type: cell-based; settings: IC50 of free drug / IC50 of polypeptide conjugate
Description: as §1, §2, §3

[15] = Human liver microsomes 0.5 mg/mL
[16] = Monkey liver microsomes 0.5 mg/mL
[17] = Mouse liver microsomes 0.5 mg/mL

Compound | CLint(liver) ([1]; Dog liver microsomes 0.5 mg/mL) [mL/min/kg] | Clearance Rate Level ([1]; Dog liver microsomes 0.5 mg/mL) | Hepatic Extraction Ratio (EH) ([1]; Dog liver microsomes 0.5 mg/mL) | k ([1]; Dog liver microsomes 0.5 mg/mL) | microsomal CLint at 1 µM ([1]; Dog liver microsomes 0.5 mg/mL) [µL/min/mg] | half-life at 1 µM ([1]; Dog liver microsomes 0.5 mg/mL) [min] | CLint(liver) [1, 15] [mL/min/kg] | Clearance Rate Level [1, 15] | Hepatic Extraction Ratio (EH) [1, 15] | k [1, 15] | microsomal CLint at 1 µM [1, 15] [µL/min/mg] | half-life at 1 µM [1, 15] [min] | CLint(liver) [1, 16] [mL/min/kg] | Clearance Rate Level [1, 16] | Hepatic Extraction Ratio (EH) [1, 16] | k [1, 16] | microsomal CLint at 1 µM [1, 16] [µL/min/mg] | half-life at 1 µM [1, 16] [min] | CLint(liver) [1, 17] [mL/min/kg] | Clearance Rate Level [1, 17] | further results
CC(=O)O[C@@]12CO[C@@H]1C[C@H](O)[C@@]1(C)C(=O)[C@H](O)C3=C(C)[C@@H](OC(=O)[C@H](OC(=O)CCC(=O)N[C@@H](CCCNC(=N)N)C(=O)N[C@@H](CO)C(=O)N4CCC[C@H]4C(=O)N[C@@H](Cc4ccc(O)cc4)C(=O)N[C@@H](C)C(=O)N[C@@H](CC(N)=O)C(=O)N[C@@H](CO)C(=O)O)[C@@H](NC(=O)OC(C)(C)C)c4ccccc4)C[C@@](O)([C@@H](OC(=O)c4ccccc4)[C@H]21)C3(C)C [DOC-AI] | 66.2 | Medium | 0.682 | 0.0230 | 45.9 | 30.2 | 23.4 | Medium | 0.531 | 0.0130 | 26 | 53.3 | 140 | High | 0.763 | 0.0520 | 104 | 13.3 | 324 | High | Hepatic Extraction Ratio (EH) [1, 17]: 0.783; k [1, 17]: 0.0410; microsomal CLint at 1 µM [1, 17]: 81.9 µL/min/mg; half-life at 1 µM [1, 17]: 16.9 min; CLint(liver) ([1]; Rat liver microsomes 0.5 mg/mL): 108 mL/min/kg; Clearance Rate Level ([1]; Rat liver microsomes 0.5 mg/mL): Medium; Hepatic Extraction Ratio (EH) ([1]; Rat liver microsomes 0.5 mg/mL): 0.662; k ([1]; Rat liver microsomes 0.5 mg/mL): 0.0301; microsomal CLint at 1 µM ([1]; Rat liver microsomes 0.5 mg/mL): 60.1 µL/min/mg; half-life at 1 µM ([1]; Rat liver microsomes 0.5 mg/mL): 23.1 min; solubility thermodynamic at 15 min [2]: 4430 µg/mL (≈ 2630 µM); Fold Increase [2]: 1.62×10^5; Efficiency Ratios [3]: 1.63; Efficiency Ratios [4]: 1.39; Efficiency Ratios [5]: 1.00; Efficiency Ratios [6]: 3.90; Efficiency Ratios [7]: 1.21; Efficiency Ratios [8]: 2.31; Efficiency Ratios [9]: 2.05; Efficiency Ratios [10]: 1.18
CC(=O)O[C@H]1C(=O)[C@@]2(C)[C@H]([C@H](OC(=O)c3ccccc3)[C@]3(O)C[C@H](OC(=O)[C@H](OC(=O)CCC(=O)N[C@@H](CCCNC(=N)N)C(=O)N[C@@H](CO)C(=O)N4CCC[C@H]4C(=O)N[C@@H](Cc4ccc(O)cc4)C(=O)N[C@@H](C)C(=O)N[C@@H](CC(N)=O)C(=O)N[C@@H](CO)C(=O)O)[C@@H](NC(=O)c4ccccc4)c4ccccc4)C(C)=C1C3(C)C)[C@]1(OC(C)=O)CO[C@@H]1C[C@@H]2O [PTX-AI] ({Paclitaxel(2'-O-succinyl)}-RSPYANS-OH) | 81.4 | High | 0.725 | 0.0283 | 56.6 | 24.5 | 26.6 | Medium | 0.562 | 0.0148 | 29.5 | 46.9 | 148 | High | 0.772 | 0.0548 | 110 | 12.7 | 405 | High | Hepatic Extraction Ratio (EH) [1, 17]: 0.818; k [1, 17]: 0.0511; microsomal CLint at 1 µM [1, 17]: 102 µL/min/mg; half-life at 1 µM [1, 17]: 13.6 min; CLint(liver) ([1]; Rat liver microsomes 0.5 mg/mL): 122 mL/min/kg; Clearance Rate Level ([1]; Rat liver microsomes 0.5 mg/mL): Medium; Hepatic Extraction Ratio (EH) ([1]; Rat liver microsomes 0.5 mg/mL): 0.689; k ([1]; Rat liver microsomes 0.5 mg/mL): 0.0339; microsomal CLint at 1 µM ([1]; Rat liver microsomes 0.5 mg/mL): 67.8 µL/min/mg; half-life at 1 µM ([1]; Rat liver microsomes 0.5 mg/mL): 20.4 min; solubility thermodynamic at 15 min [2]: 5.56 µg/mL (≈ 3.21 µM); Fold Increase [2]: 46.33; Efficiency Ratios [3]: 3.70; Efficiency Ratios [4]: 2.05; Efficiency Ratios [11]: 1.11; Efficiency Ratios [12]: 1.78; Efficiency Ratios [13]: 1.09; Efficiency Ratios [14]: 1.47

From EP4725507A1, “POLYPEPTIDE CONJUGATE, PHARMACEUTICAL COMPOSITION CONTAINING POLYPEPTIDE CONJUGATE AND USE THEREOF” (Nanjing Anji Biotechnology Co., Ltd., priority 2023, dated 2025)
